Where a chain is given by its changes, count along the chain named. Names and notes keep the numbering of the source.
B1: human recombinant BMPR-II ECD, wild type (domain or fragment)
chain: ASQNQERLCAFKDPYQQDLGIGESRISHENGTILCSKGSTCYGLWEKSKGDINLVKQGCWSHIGDPQECHYEECVVTTTPPSIQNGTYRFCCCSTDLCNVNFTENFPPPDTTPLSPPHSFNRDET
B2: BMPR-II ECD Y40R (domain or fragment)
chain: B1 chain with Y15R
B3: BMPR-II ECD S107P (domain or fragment)
chain: B1 chain with S82P
B4: BMPR-II ECD G47N (domain or fragment)
chain: B1 chain with G22N
B5: BMPR-II ECD Y40P (domain or fragment)
chain: B1 chain with Y15P
B6: BMPR-II ECD Y40Q (domain or fragment)
chain: B1 chain with Y15Q
B7: BMPR-II ECD Y40G (domain or fragment)
chain: B1 chain with Y15G

Molecular target: Activin (UniProt P08476)
Assay: SPR

Kd [µM]	Binder
26	B1
46	B2
23	B3
30	B4
70	B5
35	B6
54	B7

From article PMC3481545
